This assay has as its target GIV (Gα-interacting vesicle-associated protein, also known as Girdin), endogenous (human (endogenous in THP1)) (UniProt Q3V6T2).
UniProt Q3V6T2, sequence (Q3V6T2 whole entry): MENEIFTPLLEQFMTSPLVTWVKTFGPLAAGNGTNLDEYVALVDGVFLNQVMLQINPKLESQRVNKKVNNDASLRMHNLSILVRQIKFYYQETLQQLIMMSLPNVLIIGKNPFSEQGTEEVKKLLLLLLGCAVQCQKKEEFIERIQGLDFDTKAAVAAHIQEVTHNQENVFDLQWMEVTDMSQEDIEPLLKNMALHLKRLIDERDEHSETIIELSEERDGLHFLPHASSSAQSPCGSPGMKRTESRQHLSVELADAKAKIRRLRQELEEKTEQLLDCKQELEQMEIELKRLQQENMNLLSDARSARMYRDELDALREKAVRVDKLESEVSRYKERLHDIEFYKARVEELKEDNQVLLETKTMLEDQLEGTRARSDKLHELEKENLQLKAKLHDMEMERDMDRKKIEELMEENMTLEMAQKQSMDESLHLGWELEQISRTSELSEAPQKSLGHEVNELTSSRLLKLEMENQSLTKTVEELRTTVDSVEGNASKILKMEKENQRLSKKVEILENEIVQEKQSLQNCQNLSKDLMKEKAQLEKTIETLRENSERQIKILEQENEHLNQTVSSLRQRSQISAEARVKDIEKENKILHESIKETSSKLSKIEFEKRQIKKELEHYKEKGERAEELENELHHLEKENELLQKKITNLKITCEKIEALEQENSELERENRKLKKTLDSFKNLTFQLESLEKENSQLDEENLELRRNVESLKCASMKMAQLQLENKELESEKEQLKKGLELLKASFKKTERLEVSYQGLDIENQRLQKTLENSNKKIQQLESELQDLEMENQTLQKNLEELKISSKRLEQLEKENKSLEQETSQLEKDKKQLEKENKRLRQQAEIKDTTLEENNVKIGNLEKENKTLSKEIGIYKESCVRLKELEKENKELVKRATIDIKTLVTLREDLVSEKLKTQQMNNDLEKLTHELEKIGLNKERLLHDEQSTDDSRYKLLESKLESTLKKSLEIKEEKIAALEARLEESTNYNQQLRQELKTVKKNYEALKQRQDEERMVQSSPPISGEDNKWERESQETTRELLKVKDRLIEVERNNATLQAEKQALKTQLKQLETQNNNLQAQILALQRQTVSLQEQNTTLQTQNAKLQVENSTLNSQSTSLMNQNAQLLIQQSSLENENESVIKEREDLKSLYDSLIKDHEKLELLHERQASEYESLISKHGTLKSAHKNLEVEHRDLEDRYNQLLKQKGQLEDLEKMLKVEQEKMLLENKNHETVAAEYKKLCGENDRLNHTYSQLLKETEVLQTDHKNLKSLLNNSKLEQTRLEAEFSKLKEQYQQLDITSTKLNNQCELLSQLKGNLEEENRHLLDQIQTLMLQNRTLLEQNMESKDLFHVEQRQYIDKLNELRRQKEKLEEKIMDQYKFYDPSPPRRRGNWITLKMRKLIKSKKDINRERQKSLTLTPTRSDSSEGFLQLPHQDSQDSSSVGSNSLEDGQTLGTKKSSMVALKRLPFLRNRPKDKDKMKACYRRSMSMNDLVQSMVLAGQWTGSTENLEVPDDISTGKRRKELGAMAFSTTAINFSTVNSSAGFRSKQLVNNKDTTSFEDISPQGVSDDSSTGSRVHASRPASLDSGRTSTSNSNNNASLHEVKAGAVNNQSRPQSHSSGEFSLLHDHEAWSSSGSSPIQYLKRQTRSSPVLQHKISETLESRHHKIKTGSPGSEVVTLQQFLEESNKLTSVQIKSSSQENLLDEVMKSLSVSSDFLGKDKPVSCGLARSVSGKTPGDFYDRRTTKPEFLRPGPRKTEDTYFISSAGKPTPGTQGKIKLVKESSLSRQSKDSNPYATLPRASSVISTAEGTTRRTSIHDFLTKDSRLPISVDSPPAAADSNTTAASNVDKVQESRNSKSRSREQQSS

As to “HA-tagged NOD2–1007fs (from UniProt Q9HC29 1-1040) (natural protein)”, the suppression of LPS (100 ng/ml)-induced NFκB activation by MDP (10 μg/ml) pretreatment, luciferase reporter assay in HeLa cells transfected with NOD2-1007fs (% protection) was 20%.

The values are drawn from publication doi:10.1101/2025.01.21.634180.
